Measurements as given in IntAct's records for PubMed 18772112.

B1: Catenin beta-1 (Homo sapiens), P35222 (parent)
chain: MATQADLMELDMAMEPDRKAAVSHWQQQSYLDSGIHSGATTTAPSLSGKGNPEEEDVDTSQVLYEWEQGFSQSFTQEQVADIDGQYAMTRAQRVRAAMFPETLDEGMQIPSTQFDAAHPTNVQRLAEPSQMLKHAVVNLINYQDDAELATRAIPELTKLLNDEDQVVVNKAAVMVHQLSKKEASRHAIMRSPQMVSAIVRTMQNTNDVETARCTAGTLHNLSHHREGLLAIFKSGGIPALVKMLGSPVDSVLFYAITTLHNLLLHQEGAKMAVRLAGGLQKMVALLNKTNVKFLAITTDCLQILAYGNQESKLIILASGGPQALVNIMRTYTYEKLLWTTSRVLKVLSVCSSNKPAIVEAGGMQALGLHLTDPSQRLVQNCLWTLRNLSDAATKQEGMEGLLGTLVQLLGSDDINVVTCAAGILSNLTCNNYKNKMMVCQVGGIEALVRTVLRAGDREDITEPAICALRHLTSRHQEAEMAQNAVRLHYGLPVVVKLLHPPSHWPLIKATVGLIRNLALCPANHAPLREQGAIPRLVQLLVRAHQDTQRRTSMGGTQQQFVEGVRMEEIVEGCTGALHILARDVHNRIVIRGLNTIPLFVQLLYSPIENIQRVAAGVLCELAQDKEAAEAIEAEGATAPLTELLHSRNEGVATYAAAVLFRMSEDKPQDYKKRLSVELTSSLFRTEPMAWNETADLGLDIGAQGEPLGYRQDDPSYRSFHSGGYGQDALGMDPMMEHEMGGHHPGADYPVDGLPDLGHAQDLMDGLPPGDSNQLAWFDTDL

Variants of: B1
Settings: with runx3_human RUNX3, Q13761
Sequence of runx3_human RUNX3, Q13761 (Q13761 whole entry): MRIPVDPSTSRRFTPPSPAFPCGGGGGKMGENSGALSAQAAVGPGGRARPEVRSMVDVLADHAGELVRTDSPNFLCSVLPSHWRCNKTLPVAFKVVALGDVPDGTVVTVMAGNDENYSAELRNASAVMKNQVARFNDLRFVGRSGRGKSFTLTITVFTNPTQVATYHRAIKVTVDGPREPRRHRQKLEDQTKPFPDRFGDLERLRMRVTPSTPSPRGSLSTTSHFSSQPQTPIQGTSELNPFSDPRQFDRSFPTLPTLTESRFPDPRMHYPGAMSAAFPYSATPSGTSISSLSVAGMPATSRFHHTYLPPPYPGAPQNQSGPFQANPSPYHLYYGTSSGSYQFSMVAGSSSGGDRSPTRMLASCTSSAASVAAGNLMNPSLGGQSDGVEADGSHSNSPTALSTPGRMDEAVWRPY

| Variant | effect of a mutation on the interaction |
| --- | --- |
| S33Y | increasing interaction |
